Measurements taken from publication PMC12102759.

B1: NCOA2 peptide 1075-1090 (Nuclear receptor coactivator 2), 16-mer library wild type / NSP3 UBl1 (ORF1ab Nsp3a Ub1, residues 819-925) (parent)
chain 1: DEGALLDQLYLALRNF
chain 2: APTKVTFGDDTVIEVQGYKSVNITFELDERIDKVLNEKCSAYTVELGTEVNEFACVVADAVIKTLQPVSELLTPLGIDLDEWSMATYYLFDESGEFKLASHMYCSFY
B2: MBOAT1 peptide 17-32 (Lysophospholipid acyltransferase 1), 16-mer library wild type / NSP3 ADRP (ORF1ab Nsp3b ADRP, residues 1023-1192) (parent)
chain 1: STYLHPLSELLGIPLD
chain 2: not shown

Variants of: B1
Details: with NSP3 UBl1 (ORF1ab Nsp3a Ub1, residues 819-925); bait immobilised on MaxiSorp plates (10 µg), library pre-cleared on GST, 2 h binding at 4 °C, five washes; one round per day, days 1-4; value from days 2 and 3; keep out of graded; scale: average fractional NGS count over selection days 2 and 3

Screen value of substitutions, site by site:
chain 1 N15: L 0.000158, A 1.68e-05
chain 1 R14: N 2.08e-05, F 2.17e-05, D 0.000475, Y 5.46e-06
chain 1 Q8: G 8.24e-06, P 1.57e-05
chain 1 L11: Q 0, F 0
chain 1 A4: Y 0.00107, L 7.15e-06
chain 1 L9: T 0, H 0, V 1.9e-05, I 7.34e-06
chain 1 A12: W 0
chain 1 G3: R 2.99e-05, N 7.33e-06

Variants of: B2
Details: with NSP3 ADRP (ORF1ab Nsp3b ADRP, residues 1023-1192); bait immobilised on MaxiSorp plates (10 µg), library pre-cleared on GST, 2 h binding at 4 °C, five washes; one round per day, days 1-4; value from days 2 and 3; keep out of graded; scale: average fractional NGS count over selection days 2 and 3

Screen value: each site, then its substitutions
chain 1 L15: I 0.000505, V 0.000529, P 0, A 0, M 0.000121, E 0, W 8.57e-05, Q 0, T 9.33e-05, Y 0.000938
chain 1 S1: A 0.000215, V 0.000869, W 0.000263, P 0.000375, Q 0.000187, Y 0.00667, I 0.000426, L 0.000154, M 9.76e-05, T 9.2e-05, E 0.00035, H 0.000511, R 0, G 0.00039, N 0.000536, F 0.000157, D 0.000236
chain 1 G12: D 0, W 3.64e-05, N 5.25e-05, S 0.000443, I 5.57e-05, H 0.000369, A 0.00306, V 0, Q 0.000576, M 0.000127, P 5.99e-05
chain 1 I13: K 0, Y 0.00165, A 5.81e-05, L 0.00192, W 0.00073, V 3.18e-05, D 0, R 1.08e-05, N 3.03e-05, H 8.18e-05, Q 0.00199, T 3.35e-05, F 0.00253
chain 1 T2: F 0.00217, V 0.000388, I 2.27e-05, A 0.000138, W 2.61e-05, E 1.15e-05, L 0.000208, Q 4.36e-05, K 0, H 0.000152, Y 0.00544, R 0, S 5.82e-05
chain 1 P14: T 0.000186, S 1.48e-05, R 0, E 7.55e-05, Q 3.28e-05, N 3.9e-05, M 0.00294, D 0.000131, G 0.000153, Y 1.08e-05, I 2.27e-05, F 0
chain 1 L10: V 0, Q 0, T 0, G 0, M 0.000281, K 0, H 3e-05, Y 0.157, S 4.6e-05, N 1.09e-05, R 0, F 0.00233, I 1.63e-05
chain 1 Y3: E 2.37e-05, A 0.00112, M 0.000117, D 0.000184, L 0, T 3.8e-05, N 3.37e-05, H 3.26e-05, F 0, G 0.000695, W 0, I 0, S 2.54e-05
chain 1 E9: M 0, V 0, N 0, T 0, R 0, I 0, H 0, L 0, Y 0, S 0, G 0
chain 1 L7: I 0, A 0, M 0
chain 1 L11: Y 0.00171, S 3.31e-05, N 2.27e-05, M 1.65e-05, H 0, W 0.0297, Q 0, A 8.96e-05, I 0.000109, R 4.2e-05, G 7.04e-06
chain 1 L4: N 0, V 0.000192, M 8.68e-05, H 0.000101, F 0.000245, R 0, E 0, P 7.55e-05, A 1.65e-05, W 0.000705, D 0, S 0, Y 0.000191
chain 1 H5: Q 0, S 5.25e-05, N 0.0049, M 0, I 0, L 0
chain 1 S8: G 0, N 0
